Data reported in paper PMC8324842.
Like-named read-outs stand apart in the source and are kept apart here.

How the values were obtained:
[1] = molecular target: dimAβ (dimeric Aβ variant: two Aβ40 units linked in one polypeptide chain through a flexible glycine-serine-rich linker) (UniProt P05067); assay: ThT fluorescence aggregation kinetics; dimAβ at pH 7.4, concentration series, 37 °C, 150 mM NaCl, 1 µM ThT, microplate; lag-free oligomerization phase above the critical oligomer concentration
[2] = molecular target: dimAβ (dimeric Aβ variant: two Aβ40 units linked in one polypeptide chain through a flexible glycine-serine-rich linker) (UniProt P05067); assay: ThT fluorescence aggregation kinetics; dimAβ at pH 5.6, concentrations down to 0.4 µM, 37 °C, 150 mM NaCl
[3] = molecular target: dimAβ (dimeric Aβ variant: two Aβ40 units linked in one polypeptide chain through a flexible glycine-serine-rich linker) (UniProt P05067); assay: ThT fluorescence aggregation kinetics; dimAβ at pH 7.4, concentration series, 37 °C, 150 mM NaCl, 1 µM ThT, microplate; lag-free oligomerization phase above the critical oligomer concentration; remark: listed apart in the source

dimAβ (dimeric Aβ variant: two Aβ40 units linked in one polypeptide chain through a flexible glycine-serine-rich linker) (from UniProt P05067 672-711; P05067 672-711)
critical oligomer concentration (COC) [1]: 1 µM
critical oligomer concentration (COC) at pH 5.6 [2]: < 0.4 µM
critical oligomer concentration (COC) [3]: 1.5 µM
